Measurements reported in patent US20180243408A1.

Assays:
[1] = molecular target: component of tight junctions expressed by L-cells; assay: flow cytometry on L cells, 20 µg Arah2-pσ1, detected with anti-pσ1 rabbit serum and FITC-labeled anti-rabbit
Arah2-pσ1 fusion protein [2] = assay: flow cytometry; control serum in place of anti-pσ1 serum on L cells stained with Arah2-pσ1, FITC-labeled anti-rabbit
Arah2-pσ1 fusion protein [3] = assay: flow cytometry; control serum in place of anti-pσ1 serum on HeLa cells stained with Arah2-pσ1, FITC-labeled anti-rabbit

Substance: Arah2-pσ1 fusion protein
- MFI [1]: 1880 MFI

Substance: normal rabbit serum
- MFI (Arah2-pσ1 fusion protein [2]): 32 MFI
- MFI (Arah2-pσ1 fusion protein [3]): 26 MFI
